B1: L-SIGN-4 (receptor)
chain: MSDSKEPRVQQLGLLEEDPTTSGIRLFPRDFQFQQIHGHKSSTGCLGHGALVLQLLSFMLLAGVLVAILVQVSKVPSSLSQEQSEQDAIYQNLTQLKAAVGELSEKSKLQEIYQELTRLKAAVGELPEKSKLQEIYQELTRLKAAVGELPEKSKLQEIYQELTQLKAAVGELPDQSKQQQIYQELTDLKTAFERLCRHCPKDWTFFQGNCYFMSNSQRNWHDSVTACQEVRAQLVVIKTAEEQNFLQLQTSRSNRFSWMGLSDLNQEGTWQWVDGSPLSPSFQRYWNSGEPNNSGNEDCAEFSGSGWNDNRCDVDNYWICKKPAACFRDE
notes: Expressed whole on the surface of stably transfected HeLa cells; Encodes repeats 1, 3, 4 and 7; also called L-SIGN isoform containing 4 tandem repeats; 4-repeat form of L-SIGN
B2: L-SIGN-3 (receptor)
chain: MSDSKEPRVQQLGLLEEDPTTSGIRLFPRDFQFQQIHGHKSSTGCLGHGALVLQLLSFMLLAGVLVAILVQVSKVPSSLSQEQSEQDAIYQNLTQLKAAVGELSEKSKLQEIYQELTRLKAAVGELPEKSKLQEIYQELTQLKAAVGELPDQSKQQQIYQELTDLKTAFERLCRHCPKDWTFFQGNCYFMSNSQRNWHDSVTACQEVRAQLVVIKTAEEQNFLQLQTSRSNRFSWMGLSDLNQEGTWQWVDGSPLSPSFQRYWNSGEPNNSGNEDCAEFSGSGWNDNRCDVDNYWICKKPAACFRDE
notes: Expressed whole on the surface of stably transfected HeLa cells; Encodes tandem repeats 1, 3 and 7; also called L-SIGN isoform containing 3 tandem repeats; 3-repeat form of L-SIGN
B3: L-SIGN-9 (receptor)
chain: MSDSKEPRVQQLGLLEEDPTTSGIRLFPRDFQFQQIHGHKSSTGCLGHGALVLQLLSFMLLAGVLVAILVQVSKVPSSLSQEQSEQDAIYQNLTQLKAAVGELSEKSKLQEIYQELTQLKAAVGELPEKSKLQEIYQELTRLKAAVGELPEKSKLQEIYQELTRLKAAVGELPEKSKLQEIYQELTRLKAAVGELPEKSKLQEIYQELTRLKAAVGELPEKSKLQEIYQELTRLKAAVGELPEKSKLQEIYQELTELKAAVGELPEKSKLQEIYQELTQLKAAVGELPDQSKQQQIYQELTDLKTAFERLCRHCPKDWTFFQGNCYFMSNSQRNWHDSVTACQEVRAQLVVIKTAEEQNFLQLQTSRSNRFSWMGLSDLNQEGTWQWVDGSPLSPSFQRYWNSGEPNNSGNEDCAEFSGSGWNDNRCDVDNYWICKKPAACFRDE
notes: Expressed whole on the surface of stably transfected HeLa cells; also called L-SIGN isoform containing 9 tandem repeats; 9-repeat form of L-SIGN
B4: L-SIGN-5 (receptor)
chain: MSDSKEPRVQQLGLLEEDPTTSGIRLFPRDFQFQQIHGHKSSTGCLGHGALVLQLLSFMLLAGVLVAILVQVSKVPSSLSQEQSEQDAIYQNLTQLKAAVGELSEKSKLQEIYQELTQLKAAVGELPEKSKLQEIYQELTRLKAAVGELPEKSKLQEIYQELTRLKAAVGELPEKSKLQEIYQELTQLKAAVGELPDQSKQQQIYQELTDLKTAFERLCRHCPKDWTFFQGNCYFMSNSQRNWHDSVTACQEVRAQLVVIKTAEEQNFLQLQTSRSNRFSWMGLSDLNQEGTWQWVDGSPLSPSFQRYWNSGEPNNSGNEDCAEFSGSGWNDNRCDVDNYWICKKPAACFRDE
notes: Expressed whole on the surface of stably transfected HeLa cells; Encodes repeats 1-4 and 7; also called L-SIGN isoform containing 5 tandem repeats; 5-repeat form of L-SIGN

Target: T1, HCV pseudovirus particles (HCVpp) (hepatitis C virus isolate H77, UniProt P27958 192-383; P27958 384-746)
T1 construct: A pseudovirus particle (HIV-1 NL4.3 luciferase core) that carries E1/E2 on its envelope; Putative splice acceptor sites changed by conservative mutagenesis; also called HIV-1 particles pseudotyped with HCV E1/E2 envelope glycoproteins
Test: HCVpp supernatant on HeLa-SIGN transfectants, cell-bound p24 by ELISA

Binder | binding result
B1 | binds
B2 | binds
B3 | binds
B4 | binds
